{"source": "paper PMC6811625", "origin": "cited, not measured here", "target": "Im7 (Escherichia coli) (UniProt Q03708)", "sequence (Q03708 whole entry)": "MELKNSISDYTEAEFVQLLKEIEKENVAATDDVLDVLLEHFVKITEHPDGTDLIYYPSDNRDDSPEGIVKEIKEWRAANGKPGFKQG", "note": "pKd: −log10 of the molar value."}
{"substance": "Spy (from UniProt P77754)", "values": [{"measurement": "pKd", "value": 4.52}]}
